Tests used:
HA.ELK-1;coreSRF = assay: EMSA; conditions: not given in material (EMSA as in ref 29; southwestern as in ref 34, modified)
ELK-1(K70R);coreSRF = assay: EMSA; conditions: not given in material (EMSA as in ref 29; southwestern as in ref 34, modified)
ELK-1(K35R);coreSRF = assay: EMSA; conditions: not given in material (EMSA as in ref 29; southwestern as in ref 34, modified)
HA.ELK-1 = assay: EMSA; conditions: not given in material (EMSA as in ref 29; southwestern as in ref 34, modified)
ELK-mUBQ = assay: southwestern; conditions: renatured on nitrocellulose; not given in material (EMSA as in ref 29; southwestern as in ref 34, modified)

Row | Substance | binding signal (% (reference)) (HA.ELK-1;coreSRF) | binding signal (% of WT ELK-1) (ELK-1(K70R);coreSRF) | binding signal (% of WT ELK-1) (ELK-1(K35R);coreSRF) | binding signal (% (reference)) (HA.ELK-1) | binding signal (fold less than unmodified ELK-1) (ELK-mUBQ)
1 | CFOS SRE | 100 | 80 | 80 | – | –
2 | E74 site | – | – | – | 100 | 4
